Measured values from US6753151B1, “Interactions of Ku polypeptides and applications thereof” (Kudos Pharmaceuticals Limited, priority 1999, dated 2004).
“Also recorded” adds a separate entry of the source.

What was measured:
DNA-PKcs = DNA-PKcs (Homo sapiens, UniProt P78527); assay: GST pull-down from HeLa cell nuclear extract; type: binding; parameters: incubated with ˜100 μg (10 μl) of HeLa Cell nuclear extract (NE); host or cells: HeLa cell nuclear extract; details: for effect of EtBr on interaction with DNA-PKcs in HeLa nuclear extract: EtBr 0.2 mg/ml; for proteins retrieved from crude HeLa nuclear extract: washed in buffer X containing 150 mM KCl, silver-staining
Chain of DNA-PKcs (P78527 whole entry): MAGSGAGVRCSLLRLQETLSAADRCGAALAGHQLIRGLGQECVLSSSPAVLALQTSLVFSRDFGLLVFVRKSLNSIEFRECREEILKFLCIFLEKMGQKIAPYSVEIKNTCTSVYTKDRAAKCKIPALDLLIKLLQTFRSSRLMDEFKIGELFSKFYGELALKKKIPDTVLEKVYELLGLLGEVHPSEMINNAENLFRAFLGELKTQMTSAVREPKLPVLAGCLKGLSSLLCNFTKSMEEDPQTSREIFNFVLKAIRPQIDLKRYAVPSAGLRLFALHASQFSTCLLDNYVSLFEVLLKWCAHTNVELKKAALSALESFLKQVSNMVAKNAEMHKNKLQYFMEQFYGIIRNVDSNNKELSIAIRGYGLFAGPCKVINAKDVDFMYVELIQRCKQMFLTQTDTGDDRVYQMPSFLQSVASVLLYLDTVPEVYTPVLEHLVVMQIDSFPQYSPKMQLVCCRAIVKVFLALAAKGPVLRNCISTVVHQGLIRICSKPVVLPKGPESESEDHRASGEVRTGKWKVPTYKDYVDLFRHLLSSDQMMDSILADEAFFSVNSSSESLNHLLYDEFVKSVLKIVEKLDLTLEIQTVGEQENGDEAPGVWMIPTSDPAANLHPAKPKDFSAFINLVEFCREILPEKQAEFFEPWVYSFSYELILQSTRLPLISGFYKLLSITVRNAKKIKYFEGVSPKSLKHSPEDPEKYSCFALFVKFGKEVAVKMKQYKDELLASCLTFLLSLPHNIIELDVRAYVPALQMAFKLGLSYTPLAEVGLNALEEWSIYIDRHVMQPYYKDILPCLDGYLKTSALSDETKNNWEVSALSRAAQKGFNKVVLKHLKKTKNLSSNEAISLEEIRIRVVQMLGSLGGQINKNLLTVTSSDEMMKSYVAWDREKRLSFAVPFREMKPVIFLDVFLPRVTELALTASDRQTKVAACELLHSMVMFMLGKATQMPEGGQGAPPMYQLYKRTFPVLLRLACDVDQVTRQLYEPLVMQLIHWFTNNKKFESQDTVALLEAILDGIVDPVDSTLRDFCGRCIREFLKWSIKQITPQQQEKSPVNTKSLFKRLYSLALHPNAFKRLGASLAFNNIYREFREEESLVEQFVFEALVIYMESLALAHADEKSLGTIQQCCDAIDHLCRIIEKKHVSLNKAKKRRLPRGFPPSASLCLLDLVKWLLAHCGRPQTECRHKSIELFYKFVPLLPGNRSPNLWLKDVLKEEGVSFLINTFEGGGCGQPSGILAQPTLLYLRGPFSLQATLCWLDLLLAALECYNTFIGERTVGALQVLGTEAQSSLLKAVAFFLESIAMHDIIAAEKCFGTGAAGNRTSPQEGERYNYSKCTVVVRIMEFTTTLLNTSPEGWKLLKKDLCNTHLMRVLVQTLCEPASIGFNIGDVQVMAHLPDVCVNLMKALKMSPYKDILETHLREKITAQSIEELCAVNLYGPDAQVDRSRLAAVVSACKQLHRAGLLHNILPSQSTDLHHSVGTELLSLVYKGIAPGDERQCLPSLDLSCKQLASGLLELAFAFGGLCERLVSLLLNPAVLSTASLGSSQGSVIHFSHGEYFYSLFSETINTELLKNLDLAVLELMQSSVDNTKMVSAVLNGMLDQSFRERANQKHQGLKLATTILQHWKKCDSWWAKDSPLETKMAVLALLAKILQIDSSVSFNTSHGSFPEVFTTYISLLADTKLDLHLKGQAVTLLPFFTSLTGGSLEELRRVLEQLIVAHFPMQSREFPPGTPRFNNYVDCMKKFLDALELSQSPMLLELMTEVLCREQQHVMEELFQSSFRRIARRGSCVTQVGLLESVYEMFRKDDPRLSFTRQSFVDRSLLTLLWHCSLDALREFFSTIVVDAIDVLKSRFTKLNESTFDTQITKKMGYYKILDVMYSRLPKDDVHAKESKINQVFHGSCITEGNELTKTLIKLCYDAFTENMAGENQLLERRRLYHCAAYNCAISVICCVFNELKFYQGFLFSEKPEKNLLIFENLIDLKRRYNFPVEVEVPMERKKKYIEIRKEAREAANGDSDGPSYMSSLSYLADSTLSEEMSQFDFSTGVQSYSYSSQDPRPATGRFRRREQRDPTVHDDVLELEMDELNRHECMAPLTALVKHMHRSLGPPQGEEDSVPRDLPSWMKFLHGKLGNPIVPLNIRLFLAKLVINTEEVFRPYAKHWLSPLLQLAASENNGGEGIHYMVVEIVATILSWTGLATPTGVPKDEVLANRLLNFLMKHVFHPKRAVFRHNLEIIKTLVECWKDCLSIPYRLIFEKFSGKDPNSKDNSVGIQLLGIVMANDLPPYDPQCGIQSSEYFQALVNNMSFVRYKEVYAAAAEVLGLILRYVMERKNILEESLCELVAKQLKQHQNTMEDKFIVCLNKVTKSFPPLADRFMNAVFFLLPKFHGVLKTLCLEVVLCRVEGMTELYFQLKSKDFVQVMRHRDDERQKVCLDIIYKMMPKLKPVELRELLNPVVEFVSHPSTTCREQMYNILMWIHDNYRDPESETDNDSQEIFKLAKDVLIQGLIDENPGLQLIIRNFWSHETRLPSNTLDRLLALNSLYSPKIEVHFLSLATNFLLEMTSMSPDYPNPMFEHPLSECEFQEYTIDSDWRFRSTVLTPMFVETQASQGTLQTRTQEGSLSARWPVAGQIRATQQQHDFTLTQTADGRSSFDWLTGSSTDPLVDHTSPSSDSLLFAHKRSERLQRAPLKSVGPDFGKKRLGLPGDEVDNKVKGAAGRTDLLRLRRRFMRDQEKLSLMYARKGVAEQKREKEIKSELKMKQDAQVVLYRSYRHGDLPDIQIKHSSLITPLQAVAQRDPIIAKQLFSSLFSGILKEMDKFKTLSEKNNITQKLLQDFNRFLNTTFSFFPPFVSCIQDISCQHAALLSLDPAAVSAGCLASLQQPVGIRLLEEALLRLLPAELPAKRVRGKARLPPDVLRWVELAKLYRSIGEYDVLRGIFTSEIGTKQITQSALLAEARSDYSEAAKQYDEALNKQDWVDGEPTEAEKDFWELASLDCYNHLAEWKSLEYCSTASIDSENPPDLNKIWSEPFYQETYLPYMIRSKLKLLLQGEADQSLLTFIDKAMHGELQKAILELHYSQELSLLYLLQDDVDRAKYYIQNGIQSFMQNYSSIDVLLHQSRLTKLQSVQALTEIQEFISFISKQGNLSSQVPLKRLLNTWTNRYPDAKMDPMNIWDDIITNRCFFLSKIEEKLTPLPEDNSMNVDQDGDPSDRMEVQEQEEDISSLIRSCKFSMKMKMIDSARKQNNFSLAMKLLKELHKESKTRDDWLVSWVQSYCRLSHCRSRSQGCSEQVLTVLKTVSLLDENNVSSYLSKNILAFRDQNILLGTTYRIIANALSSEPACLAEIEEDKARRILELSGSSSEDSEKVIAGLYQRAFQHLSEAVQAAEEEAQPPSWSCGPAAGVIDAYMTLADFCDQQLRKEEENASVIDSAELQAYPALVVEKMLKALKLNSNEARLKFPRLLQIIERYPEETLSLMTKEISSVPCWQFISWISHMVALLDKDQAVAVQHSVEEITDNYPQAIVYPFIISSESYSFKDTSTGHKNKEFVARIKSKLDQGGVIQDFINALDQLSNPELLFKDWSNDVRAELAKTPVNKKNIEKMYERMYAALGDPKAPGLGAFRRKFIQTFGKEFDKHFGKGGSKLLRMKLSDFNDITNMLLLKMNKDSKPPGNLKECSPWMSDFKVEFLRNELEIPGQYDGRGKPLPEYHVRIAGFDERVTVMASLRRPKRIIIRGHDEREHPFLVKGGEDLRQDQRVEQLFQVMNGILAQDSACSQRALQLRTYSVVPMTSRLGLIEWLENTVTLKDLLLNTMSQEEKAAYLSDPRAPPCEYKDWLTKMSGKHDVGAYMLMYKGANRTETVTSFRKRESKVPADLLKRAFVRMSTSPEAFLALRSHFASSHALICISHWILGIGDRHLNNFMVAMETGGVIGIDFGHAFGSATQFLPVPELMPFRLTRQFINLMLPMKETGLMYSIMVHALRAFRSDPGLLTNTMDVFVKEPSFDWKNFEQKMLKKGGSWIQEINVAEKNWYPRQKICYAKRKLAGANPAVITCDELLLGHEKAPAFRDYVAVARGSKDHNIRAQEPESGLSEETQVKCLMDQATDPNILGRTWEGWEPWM
Method: (§1) GST-Ku70 or GST-Ku80 (0.5-2.0 μg), or deletion derivative thereof, bound to Glutathione agarose beads, was incubated with ˜100 μg (10 μl) of HeLa Cell nuclear extract (NE) and 80 μl of Z′ buffer (25 mM HEPES pH 6.7, 12.5 mM MgCl2, 1 mM dithiothreitol, 0.1% Nonidet P40 (BDH), 20% Glycerol) containing the specified concentration of KCl (for example, 50 mM Z′ contains 50 mM KCl in addition to the other buffer components). Binding reactions were incubated at 4° C. for 3-4 hours and the beads recovered by centrifugation and washed 7 times in 1 ml of Buffer X (25 mM HEPES pH 6.7, 2 mM MgCl2, 1 mM Dithiothreitol, 0.4% Nonidet P40) containing the specified concentration of KCl (for example, 120 mM Buffer X contains 120 mM KCl in addition to the other buffer components). Proteins retained on the beads after washing were eluted in SDS gel-loading buffer and half of the sample subjected to polyacrylamide gel eletrophoresis and silver staining. “Pulldown” assays from purified DNA-PKcs were done as above with 400 ng of purified DNA-PKcs substituted for HeLa NE.
The inventors performed pull-down assays from HeLa cell nuclear extract using GST-Ku70 or GST-Ku80 bound to glutathione agarose beads. Thus, GST-Ku70 or GST-Ku80 protein was purified on glutathione agarose beads as described above, and the beads incubated with crude HeLa cell nuclear extract and washed extensively in buffer X containing 150 mM KCl. The bound proteins were then eluted in the presence of SDS, subjected to SDS-PAGE on a 6% polyacrylamide gel and detected by silver-staining. A control binding reaction was carried out using beads containing only GST.
The inventors investigated whether the observed interactions between DNA-PKcs and the individual Ku subunits were indirect and were being mediated by DNA and/or the Ku heterodimer present in the HeLa nuclear extract. EtBr was used in a final concentration of 0.2 mg/ml in order to address the potential involvement of DNA (EtBr disrupts protein-DNA interactions).

purified DNA-PKcs = molecular target: T1, purified DNA-PKcs (Homo sapiens, UniProt P78527); assay: GST pull-down with purified DNA-PKcs; type: binding; details: for effect of DNA or EtBr on binding of purified DNA-PKcs: 20 ng/μl sonicated calf thymus DNA or 0.2 mg/ml EtBr; for salt dependence of interaction with homogeneous DNA-PKcs: 50 mM to 150 mM KCl; for interaction with purified DNA-PKcs: 120 mM KCl, silver-staining
T1 construct: The starting material for purification of DNA-PKcs was HeLa NE; host or cells: HeLa nuclear extract; purified in house over Q Sepharose, heparin agarose, phenyl Sepharose and Mono-S
T1 sequence (P78527 whole entry): as above
Method: as §1
The starting material for purification of DNA-PKcs was HeLa NE obtained from the Computer Cell Culture Centre, Mons, Belgium. All purification steps were performed in buffer D (20 mM HEPES pH 7.6, 2 mm MgCl2, 0.2 mM EDTA, 10% Glycerol) with a specified concentration of KCl (for example 50 mM Buffer D contains 50 mM KCl in addition to the other buffer components). In a representative purification, 35 ml of HeLa NE was cleared by centrifugation and diluted to a final concentration of 50 mM Buffer D, and protease inhibitors added (Boehringer). This was loaded onto a 60 ml column of Q Sepharose (Pharmacia) and eluted in a linear salt gradient of 50-500 mM Buffer D. Under these conditions the majority of DNA-PKcs and Ku were separated into two fractions peaking at approximately 200 mM Buffer D, and 450 mM Buffer D respectively. The DNA-PKcs fraction was adjusted to 100 mM KCl using 0 mM Buffer D (salt concentration was measured by conductivity) and applied to a 10 ml column of heparin agarose (Sigma). The column was developed with a linear gradient of 100-200 mM Buffer D. The peak DNA-PKcs fraction from the heparin column was adjusted to 0.5 M ammonium sulphate and applied to a 2.5 ml column of phenyl Sepharose (Pharmacia) equilibrated in, typically, 300 mM Buffer D containing 0.5 M ammonium sulphate. Under these conditions, 100% of DNA-PKcs is retained by the column, whilst the majority of contaminating Ku flows through (as judged by western blotting using antibodies specific to the Ku subunits). The column was then washed extensively in 0 mM Buffer D containing 0.5 M ammonium sulphate, and subsequently in 0 mM Buffer D containing 0.4 M ammonium sulphate, which removes most of the remaining Ku, before applying a linear gradient of 0.4-0 M ammonium sulphate in 0 mM Buffer D. Peak DNA-PKcs fractions were dialysed into 50 mM Buffer D, applied to a 1 ml Mono-S FPLC column (Pharmacia), and eluted in a linear gradient of 50-500 mM Buffer D. Peak fractions were dialysed into 50 mM Buffer D and stored at −80° C. prior to use. The resulting protein preparation contained a single abundant polypeptide corresponding to DNA-PKcs as judged by Coomassie staining, silver staining and western blotting, with a ladder of smaller DNA-PKcs breakdown products. […] To assess the levels of Ku contamination in the DNA-PKcs preparation we carried out quantitative western blotting using Ku-specific antibodies. In these western blots, an essentially homogeneous preparation of Ku was titrated against known amounts of our DNA-PKcs preparations.
GST-Ku70 or GST-Ku80 containing glutathione agarose beads were incubated with 0.4 μg of purified DNA-PKcs under conditions of 120 mM KCl. The beads were then washed and any proteins retained on the beads were detected by silver-staining.
A control binding reaction using beads containing GST alone was also carried out. […]

| effect of EtBr on interaction with DNA-PKcs in HeLa nuclear extract (DNA-PKcs) | Substance | proteins retrieved from crude HeLa nuclear extract (DNA-PKcs) | effect of DNA or EtBr on binding of purified DNA-PKcs (purified DNA-PKcs) | effect of DNA or EtBr on binding of purified DNA-PKcs (purified DNA-PKcs; listed as Ku70) | salt dependence of interaction with homogeneous DNA-PKcs (purified DNA-PKcs) | interaction with purified DNA-PKcs (purified DNA-PKcs) |
| --- | --- | --- | --- | --- | --- | --- |
| essentially abolished by EtBr treatment | GST-Ku70: full length human Ku70 fused to glutathione S-transferase, expressed in E. coli | DNA-PKcs is the only protein that is retrieved | no affect | no stimulation of binding was observed in the presence of DNA | at lower but not at higher ionic strengths, there is an interaction | very little interaction |
| unaffected by EtBr | GST-Ku80: full length human Ku80 fused to glutathione S-transferase, expressed in E. coli | DNA-PKcs is the only protein that is retrieved | not affected by EtBr or by sheared genomic DNA; also recorded: no affect |  | still easily detectable at 150 mM KCl | interacts efficiently with purified DNA-PKcs |
